This note sets out measurements from paper PMC4658161, “Mutually Exclusive Roles of SHARPIN in Integrin Inactivation and NF-κB Signaling” (PLoS ONE, 2015).

To fix the notation:
B1: GST-SHARPIN^WT [not stated] / recombinant RNF31 [not stated] (parent complex)
chain 1: MAPPAGGAAAAASDLGSAAVLLAVHAAVRPLGAGPDAEAQLRRLQLSADPERPGRFRLELLGAGPGAVNLEWPLESVSYTIRGPTQHELQPPPGGPGTLSLHFLNPQEAQRWAVLVRGATVEGQNGSKSNSPPALGPEACPVSLPSPPEASTLKGPPPEADLPRSPGNLTEREELAGSLARAIAGGDEKGAAQVAAVLAQHRVALSVQLQEACFPPGPIRLQVTLEDAASAASAASSAHVALQVHPHCTVAALQEQVFSELGFPPAVQRWVIGRCLCVPERSLASYGVRQDGDPAFLYLLSAPREAPATGPSPQHPQKMDGELGRLFPPSLGLPPGPQPAASSLPSPLQPSWSCPSCTFINAPDRPGCEMCSTQRPCTWDPLAAAST
chain 2: MPGEEEERAFLVAREELASALRRDSGQAFSLEQLRPLLASSLPLAARYLQLDAARLVRCNAHGEPRNYLNTLSTALNILEKYGRNLLSPQRPRYWRGVKFNNPVFRSTVDAVQGGRDVLRLYGYTEEQPDGLSFPEGQEEPDEHQVATVTLEVLLLRTELSLLLQNTHPRQQALEQLLEDKVEDDMLQLSEFDPLLREIAPGPLTTPSVPGSTPGPCFLCGSAPGTLHCPSCKQALCPACDHLFHGHPSRAHHLRQTLPGVLQGTHLSPSLPASAQPRPQSTSLLALGDSSLSSPNPASAHLPWHCAACAMLNEPWAVLCVACDRPRGCKGLGLGTEGPQGTGGLEPDLARGRWACQSCTFENEAAAVLCSICERPRLAQPPSLVVDSRDAGICLQPLQQGDALLASAQSQVWYCIHCTFCNSSPGWVCVMCNRTSSPIPAQHAPRPYASSLEKGPPKPGPPRRLSAPLPSSCGDPEKQRQDKMREEGLQLVSMIREGEAAGACPEEIFSALQYSGTEVPLQWLRSELPYVLEMVAELAGQQDPGLGAFSCQEARRAWLDRHGNLDEAVEECVRTRRRKVQELQSLGFGPEEGSLQALFQHGGDVSRALTELQRQRLEPFRQRLWDSGPEPTPSWDGPDKQSLVRRLLAVYALPSWGRAELALSLLQETPRNYELGDVVEAVRHSQDRAFLRRLLAQECAVCGWALPHNRMQALTSCECTICPDCFRQHFTIALKEKHITDMVCPACGRPDLTDDTQLLSYFSTLDIQLRESLEPDAYALFHKKLTEGVLMRDPKFLWCAQCSFGFIYEREQLEATCPQCHQTFCVRCKRQWEEQHRGRSCEDFQNWKRMNDPEYQAQGLAMYLQENGIDCPKCKFSYALARGGCMHFHCTQCRHQFCSGCYNAFYAKNKCPEPNCRVKKSLHGHHPRDCLFYLRDWTALRLQKLLQDNNVMFNTEPPAGARAVPGGGCRVIEQKEVPNGLRDEACGKETPAGYAGLCQAHYKEYLVSLINAHSLDPATLYEVEELETATERYLHVRPQPLAGEDPPAYQARLLQKLTEEVPLGQSIPRRRK

This assay covers variants of B1. Description: ELISA-based binding assay; n = 3; parent: 1; read off a plot. For orientation: ELISA stands for enzyme-linked immunosorbent assay.
Regarding chain 1 L276A, the response is roughly 0.49 Abs 450nm. chain 1 V267A: the response is roughly 0.69 Abs 450nm. With chain 1 L261A, chain 1 F263A the figure was roughly 0.7 Abs 450nm. Regarding chain 1 I272A, the response was roughly 0.45 Abs 450nm.
